This assay concerns the target T1, chymotrypsin-treated Cry3Bb (Bacillus thuringiensis, UniProt Q06117 162-652).
T1 construct: Insecticidal Cry toxin; It was coated on microtiter plates after chymotrypsin treatment; also called Cry3Bb protein; Cry3Bb toxin
T1 sequence: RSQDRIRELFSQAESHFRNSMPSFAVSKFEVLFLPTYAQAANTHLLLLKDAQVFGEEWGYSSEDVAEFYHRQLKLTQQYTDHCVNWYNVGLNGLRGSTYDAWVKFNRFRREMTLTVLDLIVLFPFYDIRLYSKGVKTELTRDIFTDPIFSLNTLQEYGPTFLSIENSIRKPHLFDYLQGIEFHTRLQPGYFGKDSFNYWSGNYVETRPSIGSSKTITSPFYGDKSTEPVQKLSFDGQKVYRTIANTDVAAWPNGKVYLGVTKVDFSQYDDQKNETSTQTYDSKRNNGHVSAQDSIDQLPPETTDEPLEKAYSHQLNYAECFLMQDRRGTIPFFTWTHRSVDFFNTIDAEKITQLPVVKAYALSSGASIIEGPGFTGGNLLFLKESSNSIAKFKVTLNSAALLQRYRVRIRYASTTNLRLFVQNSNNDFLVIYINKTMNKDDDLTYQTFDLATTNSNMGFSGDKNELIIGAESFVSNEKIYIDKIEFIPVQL
Briefly: ELISA-based microplate binding assay: plates coated with chymotrypsin-treated Cry3Bb, increasing concentrations of biotinylated TmCad1-TBR, streptavidin-HRP detection, one site saturation fit. As to the method:
FIG. 7 illustrates TmCad1-TBR binding to Cry3Bb (Panel A) and enhancement of Cry3Bb toxicity to lesser mealworm by TmCad1-TBR peptides (Panel B). In Panel A, TmCad1-TBR binding to Cry3Bb protein was determined using an ELISA-based binding assay. Microtiter plates were coated with chymotrypsin-treated Cry3Bb and then incubated with increasing various concentrations of biotinylated TmCad1-TBR peptide. Bound biotinylated TmCad1-TBR peptide was detected with a Streptavidin-HRP conjugate and substrate. Non-specific binding was determined in the presence of 1000-fold excess unlabeled TmCad1-TBR peptide. Each data point is the mean of two experiments done in duplicate. Error bars depict standard deviation. Binding affinities (Kd) were calculated based on specifically bound biotinylated TmCad1-TBR peptide using a one site saturation binding equation. […] Cry3Bb inclusions without or with and increased amount of TmCad1-TBR inclusions were applied to semi-solid diet. One 1st instar darkling beetle larva was applied per well and the bioassays was scored on day 3. No toxicity was observed when treated with TmCad1-TBR peptide alone.
We tested the possibility that TmCad1-TBR binds a coleopteran-active Cry toxins using a microplate binding assay described previously (Zhang et al. 2008). […] TmCad1-TBR also enhances Cry3Bb toxicity to A. diaperinus larvae (FIG. 7A).
A general note: In an ELISA, binding on a coated surface is turned into a signal by an enzyme label.

B1: TmCad1-TBR cadherin fragment from the Tenebrio molitor cadherin (T. molitor cadherin Toxin Binding Region) (receptor)
chain: MKQWYQRRVAITAGKDTTSKDKLQYNIDNITPSNLDLDIKSAFTMNTQSGDITINFEVKDSMEGYFTLDLSVQDEEPENHKADATLKIYIVTSKNTVVFRFENDQETVSDKAGDIKSVLDEEFQYETKVEAPTGNTTDGTPLTRSPVFFLNLNTNEPVDATEILKKVTNVDVFQRLKNNFSKVGLVLLSFDSSSETNENLEAHHHHHH
modifications: biotinylated (sites not given)
notes: also called CR12-MPED of TmCad1
For B1, the Kd was determined as 13 nM.

The Kd is a measure of binding affinity in units of concentration. A lower Kd goes with higher affinity.

For the origin of these results see patent US20110201549A1 (UNIVERSITY OF GEORGIA RESEARCH FOUNDATION, published 2011).
